A short description of this data set: yeast display, Sf9 membrane polyspecificity reagent, FACS + sequencing; frameworks hold sequencing errors. The method, boiled down:
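Synthetic nanobody libraries on Saccharomyces cerevisiae BJ5465 were galactose-induced for 36–48 hours, stained 1 hour at 4 °C with 10% biotinylated, detergent-solubilized Sf9 membrane reagent and enriched on streptavidin microbeads. FACS then separated cells into low and high (top ~1%) gates by anti-HA (expression) and streptavidin (reagent binding) fluorescence. Genes were colony-PCR amplified, MiSeq 2 × 250 sequenced and CDR-length filtered. A clone's polyreactivity label is that of its gate of origin.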
In the case of “QVQLVESGGGLVQAGGSLRLSCAAYGRYYSRNPMGWYRQAPGKERELVAAITWRGGSTYYADSVKGRFTISRDNAKNTVFLQMISLKPEDTAVYYCNRDYRQYGYAYSGRYYWGHGTQVTVSS”, the “polyreactivity (PSR sort gate)” value is “high polyreactivity”.

Consider “QVQLVESGGGLVQAGGSLRLSCAAYGSFFPYNAMGWYRQAPGKERELVAGITRRGGSTYYADSVKGRFTISRDNAKNTVYLQINSLKPVDTAVYYCGTEVTYPWHVDEGDYWGQGTQVTVSS”, for which the “polyreactivity (PSR sort gate)” value is “low polyreactivity”.

Consider “QVQLVESGGGLVQAGGSLRLSCAAYGSIFDANAMGWYRQAPGKEREFLAAINCTGGSTYYAESVKGRFTISRDYAKNTVYLQMNILKPEDTAGYYCAAEWWYQNNPEIYYYWGQGIQVTVSS”, for which the “polyreactivity (PSR sort gate)” value was “high polyreactivity”.

Consider “QVQLVESGGGLVQAGGSLRLSCAAYGSIFETYVMGWYRQAPGKERELVAAINSGGSTNYADSVKGRFTISRDNAKNTVYLQMNSLKPEDTAVYYCNADWFTPAQPWYRYFIRYDYWGQGTQVTVSS”, for which the “polyreactivity (PSR sort gate)” value is on record as “low polyreactivity”.

Turning to “QVQLVESGGGLVQAGGSLRLSCAAYGSIFGGNAMGWYRQAPGKERELVARITDRGGSTDYADSVKGRFTISRDNAKNTVFLHMNSLKREDTAVYYCAKRGDRYEQRPRDYWGQGTQVTVSS”, the “polyreactivity (PSR sort gate)” value is “low polyreactivity”.

For “QVQLVESGGGLVQAGGSLRLSCAAYGSIFGSYCMGWYRQAPGKERELVAAIRVSGGSTYYADSVKGRFTISRDNAKNTVYLQMNSLKPEDTAVYYCAARARSTPRKYYYTRGYWGQGSQVTVSS”, the “polyreactivity (PSR sort gate)” value was “high polyreactivity”.

For the sequence “QVQLVESGGGLVQAGGSLRLSCAAYGSIFVWYDMGWYRQAPGKERELVATISLSGVSTYYADSVKGRFTISRDNAKNTVYLQMNCLKPEDSAVYYCAADFVEQGEDDYWGQGTQLTVSS”, the “polyreactivity (PSR sort gate)” value is recorded as “low polyreactivity”.

Take “QVQLVESGGGLVQAGGSLRLSCAAYGSTFPGYAMGWYRQAPGKERELVAAISASGGSTYYADSVKGRFTISRDNAKNTVYLQMISLIPEDTAVYFCAKVLSRGACADDYWGQGTQVTVSS”: the “polyreactivity (PSR sort gate)” value is “low polyreactivity”.

Turning to “QVQLVESGGGLVQAGGSLRLSCAAYGSTFYAYAMGWYRQAPGKERELVAAITYRDARTYYADSVKGRFTISRDNAKNTVYLQMISLKPEDTAVYYCARKTGFTVRRYDYWGQGTQVTVSS”, the “polyreactivity (PSR sort gate)” value was “high polyreactivity”.

As to “QVQLVESGGGLVQAGGSLRLSCAAYGSTLAGYAMGWYRQAPGKERELVAAIDWTGGSTTYADSVKGRFTISRDNAKNTVYLQMNSLKPEDTAVYYCNVDLGVNGDYWGQGSQVTVSS”, the “polyreactivity (PSR sort gate)” value is “low polyreactivity”.

“QVQLVESGGGLVQAGGSLRLSCAAYGSTLNRNVMGWYRQAPGKERELVAVITYGVGSTYYADSVKGRFTISRDNAKNTVYLQMNSLKPEDTAVYYCNKDPLVFDYWGQGTQVTVSS”: the “polyreactivity (PSR sort gate)” value is “low polyreactivity”.

Consider “QVQLVESGGGLVQAGGSLRLSCADSGFIFRYNTMGWYRQAPGKERELVAAITSGDSTYYADSVKGRFTITRDNAKNTVYLQMNSLKPEDTEVYYCAARPYSGRNKYDYWGQGTQVTVSS”, for which the “polyreactivity (PSR sort gate)” value was “high polyreactivity”.

Regarding “QVQLVESGGGLVQAGGSLRLSCADSGFIFYDYTMGWYRQAPGKERELVAVISRGGSTYYADSVKGRFTISRDNAKNTVYLQMNSLNPEDSAVYYCAARPRWYTFTRQEYDYWGQGTQVTVSS”, the “polyreactivity (PSR sort gate)” value is given as “high polyreactivity”.

On to “QVQLVESGGGLVQAGGSLRLSCADSGFIIFCYAMGWYRQAPGKERELVAAITSGGSTYYAYSVKGRFTISRDNAKNTVYLQMNSLKPEDTAVYYCAAVRWYGSKRYGYWGQGTQVTVSS”, for which the “polyreactivity (PSR sort gate)” value is given as “high polyreactivity”.

As to “QVQLVESGGGLVQAGGSLRLSCADSGFNFYQYAMGWYRQAPGKERELVAVISGSGSRTYYADSVKGRFTISRDNAKNTVYLQMNSLKPEDTAVYYCAAKGVIISYDTLRYDSWGQGTQVTVSS”, the “polyreactivity (PSR sort gate)” value is on record as “high polyreactivity”.

In the case of “QVQLVESGGGLVQAGGSLRLSCADSGFTFIKYAMGWYRQAPGKEREFVATISWNGGNTYYADSVKGRFTISRDNAKNTVYLQMNSLKPEDTAVYYCAARVKYRTRGGTVVSYDYWGQGPQVTVSS”, the “polyreactivity (PSR sort gate)” value is given as “high polyreactivity”.

Regarding “QVQLVESGGGLVQAGGSLRLSCADSGFTFRYNAMGWYRQAPGKERELVAAISRSGGRTYYADSVKGRFTISRDNAKNTVYLQMNSLKPEDSAVYYCAAVAARITGYGYWGQGTQVTVSS”, the “polyreactivity (PSR sort gate)” value is listed as “high polyreactivity”.

For the sequence “QVQLVESGGGLVQAGGSLRLSCADSGFTFVAYAMGWYRQAPGKERELVAVISRGGSTYYADSVKGRFTISRDNAKNTVYLQMNSLKPEDTAVYYCAATYIHSYGKFYYWGQGTQLTVSS”, the “polyreactivity (PSR sort gate)” value was “low polyreactivity”.

In the case of “QVQLVESGGGLVQAGGSLRLSCADSGFTFYYSAMGWYRQAPGKEREVVAAISWGGGTTYYADSVKGRFTISRDNAKNTVYLQMNSLKPEDTAVFYCNAASSLPGYDYWGQGTQVTVSS”, the “polyreactivity (PSR sort gate)” value is on record as “high polyreactivity”.

Take “QVQLVESGGGLVQAGGSLRLSCADSGIIFYVYAMGWYRPAPGKEREWVAAISSGGRTKYADSVKGRFTISRDNAKNTVYLQMNSLKPEDTAVYYCAAKSVRRRLGYWGQGTQVTVSS”: the “polyreactivity (PSR sort gate)” value was “high polyreactivity”.

For the sequence “QVQLVESGGGLVQAGGSLRLSCADSGIISIFNVIGWYRQAPGKERELVASITGRGGSTFYADSVKGRFTISRDNAKNTVYLQMNILKPEDTAVYYCATDTGYTYPVTGLYDYWGQGTQVTVSS”, the “polyreactivity (PSR sort gate)” value is given as “low polyreactivity”.

Turning to “QVQLVESGGGLVQAGGSLRLSCADSGITFFTYAMGRYRQAPGKERELVAAISGSGGSTYYADYVKWRFTISRDNAKNTVYLQMNSLKPEDTEVYYCAAEYTYGSPYDYWGQGTQVTVSS”, the “polyreactivity (PSR sort gate)” value was “low polyreactivity”.

As to “QVQLVESGGGLVQAGGSLRLSCADSGITFGLYAMGWYRQAPGKERELVAAISSSGGRTYYADSVKGRFTISRDIAKKTVYLQMYSLKPEDTAVYVCATDTDGFAANRPAGDGDWGQGTQVTVSS”, the “polyreactivity (PSR sort gate)” value was “high polyreactivity”.

As for “QVQLVESGGGLVQAGGSLRLSCADSGITFWRYAMGWYRHAPGKERELVAAISWSGGNTYYADSVKGRFTISRDNAKNTVYLQMNSLKPEDTAVYYCATSRTYVIYDYWGQGTQVTVSS”, the “polyreactivity (PSR sort gate)” value is listed as “low polyreactivity”.

As for “QVQLVESGGGLVQAGGSLRLSCADSGLIFGYYAMGGYRQAPGKERELVAAITSSGTSTYYADSVKGRFTISRDNAKNTVYLQMNSLKPEDTAVYYCAAQYIGKKRFNYWGQGTQVTVSS”, the “polyreactivity (PSR sort gate)” value is “high polyreactivity”.

Take “QVQLVESGGGLVQAGGSLRLSCADSGLTFSVYTMGWYRQAPGKERELVAAITTSGGRTYYADSVKGRFTISRDNAKNTVYLQKNSLKPEDTAVYYCAAVRTGDTTGTMGYWGQGTQVTVSS”: the “polyreactivity (PSR sort gate)” value was “high polyreactivity”.

Take “QVQLVESGGGLVQAGGSLRLSCADSGNIFSWYAMGWYRQAPGKERELVAAITWSGGTTYYADSVKGRFTISRDNAKNTVYLQMNSLKPEDTAVYYCAVFSRYRSGYYSWGQGTQVTVSS”: the “polyreactivity (PSR sort gate)” value is reported as “high polyreactivity”.

For “QVQLVESGGGLVQAGGSLRLSCADSGRIFRDYAMGWYRQAPGKERELVAAISRSGGSTYYADSVKGRFTISRDNAKNTVYLQVNSLKPEDTAVFYCAAKYYYGGNGYWGQGTQVTVSS”, the “polyreactivity (PSR sort gate)” value is recorded as “low polyreactivity”.

As for “QVQLVESGGGLVQAGGSLRLSCADSGRIFYSYTRGWYRPAPGKERELVAAIRKSGGRTYYADSVKGRFTISRDNAKNTVYLQMNSLKPEDTAVYYCATTNYELSYYYWGQGTQVTVSS”, the “polyreactivity (PSR sort gate)” value is reported as “high polyreactivity”.

In the case of “QVQLVESGGGLVQAGGSLRLSCADSGRIIYLNAMGLYRQAPGKERELVAAITRSAASTHYADSVKGRFTISRDNAKNTVYLQMNSLKPEDTAVYYCNARGYPKSWRYSRGYEYWGQGTQVTVSS”, the “polyreactivity (PSR sort gate)” value is “low polyreactivity”.

In the case of “QVQLVESGGGLVQAGGSLRLSCADSGRTFKSYAMGWYRQAPGKERELVAAISSSGGRTFYADSVKGRFTISRDNAKNTVYLQMNSLKPEDTAVYYCNARGFYRGYTYYYWGQGTQVTVSS”, the “polyreactivity (PSR sort gate)” value is on record as “high polyreactivity”.

“QVQLVESGGGLVQAGGSLRLSCADSGRTFQRHARGWYRKAPGKEREFVAAISKSGGRTYYADSVKGRFTISRDTAKNTVSLQMNSLKPEDTAVYYCNRGSTHDLSHPELYGYWGQGTQVTVSS”: the “polyreactivity (PSR sort gate)” value is given as “high polyreactivity”.

Regarding “QVQLVESGGGLVQAGGSLRLSCADSGRTFVSNAMGWYRQAPGKERELVAAISGSGGITYYADSVKGRFTISRDNAKNTVYLQMNSLKPEDTAVYYCNADSSGWFPFDYWGQGTQVTVSS”, the “polyreactivity (PSR sort gate)” value was “low polyreactivity”.

Take “QVQLVESGGGLVQAGGSLRLSCADSGRTFWGYSMGCYRQAPGKERELVAAITWNGGRTYYADSVKGRFTISRDNAKNTVYLQMNSLKPEDTAVYYCAAGYPRFGYDYWGQGTQVTVSS”: the “polyreactivity (PSR sort gate)” value is “high polyreactivity”.

With “QVQLVESGGGLVQAGGSLRLSCADSGRTFWSNAMGWYRQAPGKERELVARIDSTYYADSVKGRFTISRDNAKNTVYLQMNSLKPEDTAVYYCNADTIYYAGDFRYDYWGQGTQVTVSS”, the “polyreactivity (PSR sort gate)” value is given as “low polyreactivity”.

Take “QVQLVESGGGLVQAGGSLRLSCADSGRTFYGNARGWYRQAPGKERELVAAISISGGSTYYADSVKGRFTISRDNAKNTVYLQMNSLKPEDTAVYYCNAQEYYYYPYVYDSDYWGQGTQVTVSS”: the “polyreactivity (PSR sort gate)” value was “low polyreactivity”.

As to “QVQLVESGGGLVQAGGSLRLSCADSGRTFYYYAMGWYRQAPGKEREFVAAITTRGGSTYYADSVKGRFTISRDNAKNTVYLQMNSLTPEDTAVYYCAARYTGRQGVYKTYYYWGQGTQVTVSS”, the “polyreactivity (PSR sort gate)” value is given as “high polyreactivity”.

On to “QVQLVESGGGLVQAGGSLRLSCADSGRTIGLNGMGWYRQAPGKERELVAGISWTGGSTNYADSVKGRFTFSRDNEKNTVYLQINSLKPEDTAVYYCAADFVYYVVNDFGWSYAYEYWGQGTQVTVSS”, for which the “polyreactivity (PSR sort gate)” value is reported as “low polyreactivity”.

As to “QVQLVESGGGLVQAGGSLRLSCADSGSIFDQYTMGWYRQAPGKERELVAGISSGGITNYADSVKGRFTISRDNAKNTVYLQMNSLKPEDTAVYYCAADNWYLAEYDYWGQGTQVTVSS”, the “polyreactivity (PSR sort gate)” value is “low polyreactivity”.

For “QVQLVESGGGLVQAGGSLRLSCADSGSIFEFNTMGWYRQAPGKERELVAAISSADTTNYADSVKGRFTISRDNAKNTVYLQMNSLKPEDTAVYYCNKELHLSATLRVLGFDYWGQGTQVTVSS”, the “polyreactivity (PSR sort gate)” value was “low polyreactivity”.

In the case of “QVQLVESGGGLVQAGGSLRLSCADSGSIFFPYAMGWYRQAPGKERYLVAAISSGTSTYYADSVKGRFTISRDNAKNTVYLQMNSLKPEDTAVFYCNARHRRGRFTHDYDYWGQGTQVTVSS”, the “polyreactivity (PSR sort gate)” value is recorded as “low polyreactivity”.

Values taken from the nanobody polyreactivity screen of Harvey et al. (2022).
